According to IntAct's records for PubMed 19234114:

B1: Ferroportin (Mus musculus), Q9JHI9 (parent)
chain: MTKARDQTHQEGCCGSLANYLTSAKFLLYLGHSLSTWGDRMWHFAVSVFLVELYGNSLLLTAVYGLVVAGSVLVLGAIIGDWVDKNARLKVAQTSLVVQNVSVILCGIILMMVFLHKNELLTMYHGWVLTVCYILIITIANIANLASTATAITIQRDWIVVVAGENRSRLADMNATIRRIDQLTNILAPMAVGQIMTFGSPVIGCGFISGWNLVSMCVEYFLLWKVYQKTPALAVKAALKVEESELKQLTSPKDTEPKPLEGTHLMGEKDSNIRELECEQEPTCASQMAEPFRTFRDGWVSYYNQPVFLAGMGLAFLYMTVLGFDCITTGYAYTQGLSGSILSILMGASAITGIMGTVAFTWLRRKCGLVRTGLFSGLAQLSCLILCVISVFMPGSPLDLSVSPFEDIRSRFVNVEPVSPTTKIPETVFTTEMHMSNMSNVHEMSTKPIPIVSVSLLFAGVIAARIGLWSFDLTVTQLLQENVIESERGIINGVQNSMNYLLDLLHFIMVILAPNPEAFGLLVLISVSFVAMGHLMYFRFAQKTLGNQIFVCGPDEKEVTDENQPNTSVV

Variants of: B1
Conditions: with jak2_human JAK2, O60674
Sequence of jak2_human JAK2, O60674 (O60674 whole entry): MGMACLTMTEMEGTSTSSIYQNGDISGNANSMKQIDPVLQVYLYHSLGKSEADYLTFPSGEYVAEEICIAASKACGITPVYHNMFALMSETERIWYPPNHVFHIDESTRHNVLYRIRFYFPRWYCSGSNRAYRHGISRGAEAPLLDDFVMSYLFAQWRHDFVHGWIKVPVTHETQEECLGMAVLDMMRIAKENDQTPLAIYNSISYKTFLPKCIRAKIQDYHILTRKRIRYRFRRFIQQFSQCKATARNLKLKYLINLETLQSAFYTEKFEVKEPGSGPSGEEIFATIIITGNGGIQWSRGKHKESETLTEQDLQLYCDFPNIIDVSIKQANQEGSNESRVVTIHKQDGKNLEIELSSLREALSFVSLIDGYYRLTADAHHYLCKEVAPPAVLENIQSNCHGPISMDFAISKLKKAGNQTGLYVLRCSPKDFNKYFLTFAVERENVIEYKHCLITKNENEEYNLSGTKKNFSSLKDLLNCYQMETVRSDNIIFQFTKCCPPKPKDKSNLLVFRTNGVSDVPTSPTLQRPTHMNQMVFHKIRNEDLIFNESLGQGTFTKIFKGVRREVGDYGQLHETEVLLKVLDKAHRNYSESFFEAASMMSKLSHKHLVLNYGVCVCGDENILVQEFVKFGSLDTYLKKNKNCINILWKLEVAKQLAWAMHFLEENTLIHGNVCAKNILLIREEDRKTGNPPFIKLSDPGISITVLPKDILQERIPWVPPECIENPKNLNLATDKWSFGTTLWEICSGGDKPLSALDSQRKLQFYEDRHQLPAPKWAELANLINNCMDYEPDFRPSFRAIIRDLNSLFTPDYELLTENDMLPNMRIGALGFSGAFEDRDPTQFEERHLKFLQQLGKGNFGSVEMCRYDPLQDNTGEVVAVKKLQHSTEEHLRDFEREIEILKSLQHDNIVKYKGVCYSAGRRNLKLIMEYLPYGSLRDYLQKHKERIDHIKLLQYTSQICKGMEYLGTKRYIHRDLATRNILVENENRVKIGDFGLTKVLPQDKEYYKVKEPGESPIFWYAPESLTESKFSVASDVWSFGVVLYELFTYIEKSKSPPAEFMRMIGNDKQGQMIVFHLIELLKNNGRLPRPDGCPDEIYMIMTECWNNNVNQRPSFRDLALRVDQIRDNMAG

Variant	effect of a mutation on the interaction
C326Y	disrupting interaction
